This assay deals with mVps29 (mouse (printed as mVps29), UniProt Q9QZ88 1-182). Put plainly: crystal structure; hanging drop, 20 °C; 0.1 M Tris-HCl pH 8.5, 0.2 M MgCl2, 30% PEG4000; 3-fold molar excess of peptide over mVps29. Conditions: both partners purified.

B1: human DENND4C peptide 1189-1206 (peptide)
peptide: AKVVQREDVETGLDPLSL
notes: also called hDENND4C_(1189-1206); DENND4C PL motif-containing peptide; source: synthetic peptide
For B1, the binding result was “binds”.

(Values after publication PMC12311110, “Mapping of endosomal proximity proteomes reveals Retromer as a hub for RAB GTPase regulation” (Nature Communications, 2025).)
